Test results as given in patent publication US20250304927A1, “PRO-PEPTIDE VARIANTS FOR MODULATING ACTIVITY OF TRANSGLUTAMINASES” (CURIE CO. INC., priority 2022, published 2025).

Key:
[1] = target: T1, thermostable variant of Streptomyces mobaraensis transglutaminase (Streptomyces mobaraensis, UniProt P81453 79-407); experiment: cell-based or functional assay
T1 sequence: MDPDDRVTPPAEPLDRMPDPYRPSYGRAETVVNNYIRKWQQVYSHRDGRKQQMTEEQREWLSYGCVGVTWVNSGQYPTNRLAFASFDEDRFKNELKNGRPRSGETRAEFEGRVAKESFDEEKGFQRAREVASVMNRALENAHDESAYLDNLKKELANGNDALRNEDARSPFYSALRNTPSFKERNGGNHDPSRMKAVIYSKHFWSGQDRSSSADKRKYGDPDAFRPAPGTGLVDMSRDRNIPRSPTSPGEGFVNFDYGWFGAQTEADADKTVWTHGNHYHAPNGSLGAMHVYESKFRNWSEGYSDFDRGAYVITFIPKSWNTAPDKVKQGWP

[2] = target: T1, thermostable variant of Streptomyces …; experiment: cell-based or functional assay; remark: listed apart in the source

| Binder | Improvement in pH responsiveness of inhibitory peptide relative to WT [1] [fold] | Reduction in binding affinity of inhibitory peptide relative to WT [2] [fold] |
| --- | --- | --- |
| MDNGAGEGTKSYAETYRLTADDVANINALNESAPAASSAGPSFRAP [pro-peptide variant E8G] | > 1.2 | > 1.2 |
| MDNGAGEETRSYAETYRLTADDVANINALNESAPAASSAGPSFRAP [pro-peptide variant K10R] | > 1.2 | > 1.2 |
| MDNGAGEETKSYARTYRLTADDVANINALNESAPAASSAGPSFRAP [pro-peptide variant E14R] | > 1.2 | > 1.2 |
| MDNGAGEETKSYAGTYRLTADDVANINALNESAPAASSAGPSFRAP [pro-peptide variant E14G] | > 5 | > 1.2 |
| MDNGAGEETKSYAETYRLTADDVANYNALNESAPAASSAGPSFRAP [pro-peptide variant I26Y] | > 1.2 | > 1.2 |
| MDNGAGEETKKYAETYRLTADDVANINALNESAPAASSAGPSFRAP [pro-peptide variant S11K] | > 1.2 | > 1.2 |
| MDNGAGEETKSYAETYRLTALDVANINALNESAPAASSAGPSFRAP [pro-peptide variant D21L] | > 1.2 | > 5 |
| MDNGAGEETKSTAETYRLTADDVANINALNESAPAASSAGPSFRAP [pro-peptide variant Y12T] | > 1.2 | > 1.2 |
| MDNGAGEETKSNAETYRLTADDVANINALNESAPAASSAGPSFRAP [pro-peptide variant Y12N] | > 1.2 | > 1.2 |
| MDNGAGEETDSYAETYRLTADDVANINALNESAPAASSAGPSFRAP [pro-peptide variant K10D] | > 1.2 | > 1.2 |
| MDNGAGEETKSYAETYRLTADDVHNINALNESAPAASSAGPSFRAP [pro-peptide variant A24H] | > 5 | > 1.2 |
| MDNGAGEETKSVAETYRLTADDVANINALNESAPAASSAGPSFRAP [pro-peptide variant Y12V] | > 1.2 | > 1.2 |
| MDNGAGEETKSYAVTYRLTADDVANINALNESAPAASSAGPSFRAP [pro-peptide variant E14V] | > 1.2 | > 1.2 |
| MDNGAGEETKSLAETYRLTADDVANINALNESAPAASSAGPSFRAP [pro-peptide variant Y12L] | > 1.2 | > 1.2 |
| MDNGAGEETKSYAETYRLTARDVANINALNESAPAASSAGPSFRAP [pro-peptide variant D21R] | > 1.2 | > 5 |
| MDNGAGEETKSYAETYRWTADDVANINALNESAPAASSAGPSFRAP [pro-peptide variant L18W] | > 1.2 | > 1.2 |
| MDNGAGEETKSYAETYRLTADGVANINALNESAPAASSAGPSFRAP [pro-peptide variant D22G] | > 1.2 | > 1.2 |
| MDNGAGEETKSYATTYRLTADDVANINALNESAPAASSAGPSFRAP [pro-peptide variant E14T] | > 1.2 | > 1.2 |
| MDNGAGEETKSYAETYRKTADDVANINALNESAPAASSAGPSFRAP [pro-peptide variant L18K] | > 1.2 | > 1.2 |
| MDNGAGEETKSGAETYRLTADDVANINALNESAPAASSAGPSFRAP [pro-peptide variant Y12G] | > 1.2 | > 1.2 |
| MDNGAGEETKDYAETYRLTADDVANINALNESAPAASSAGPSFRAP [pro-peptide variant S11D] | > 1.2 | > 1.2 |
| MDNGAGEEQKSYAETYRLTADDVANINALNESAPAASSAGPSFRAP [pro-peptide variant T9Q] | > 1.2 | > 1.2 |
| MDNGAGGETKSYAETYRLTADDVANINALNESAPAASSAGPSFRAP [pro-peptide variant E7G] | > 5 | > 1.2 |
| MDNGAGEETKLYAETYRLTADDVANINALNESAPAASSAGPSFRAP [pro-peptide variant S11L] | > 1.2 | > 1.2 |
| MDNGAGEETKSYANTYRLTADDVANINALNESAPAASSAGPSFRAP [pro-peptide variant E14N] | > 5 | > 1.2 |
| MDNGAGEETGSYAETYRLTADDVANINALNESAPAASSAGPSFRAP [pro-peptide variant K10G] | > 5 | > 1.2 |
| MDNGAGEYTKSYAETYRLTADDVANINALNESAPAASSAGPSFRAP [pro-peptide variant E8Y] | > 1.2 | > 1.2 |
| MDNGAGEETKS [pro-peptide truncation variant ΔY12-P46] | > 1.2 | > 1.2 |
| MDNGAGEETKSYAETYR [pro-peptide truncation variant ΔL18-P46] | > 5 | > 1.2 |
| MDNGAGEETKSYAETYRLTADDVAN [pro-peptide truncation variant ΔI26-P46] | > 1.2 | > 1.2 |
